# Laboratory results reported in patent US20210206856A1 (PANDION OPERATIONS, published 2021).
# Where a chain is given by its changes, count along the chain named.
# T1: human MAdCAM expressed on cells (human, UniProt Q13477 19-382)
# T1 construct: whole, on cells; also called MADCAM1
# T1 sequence (looked up): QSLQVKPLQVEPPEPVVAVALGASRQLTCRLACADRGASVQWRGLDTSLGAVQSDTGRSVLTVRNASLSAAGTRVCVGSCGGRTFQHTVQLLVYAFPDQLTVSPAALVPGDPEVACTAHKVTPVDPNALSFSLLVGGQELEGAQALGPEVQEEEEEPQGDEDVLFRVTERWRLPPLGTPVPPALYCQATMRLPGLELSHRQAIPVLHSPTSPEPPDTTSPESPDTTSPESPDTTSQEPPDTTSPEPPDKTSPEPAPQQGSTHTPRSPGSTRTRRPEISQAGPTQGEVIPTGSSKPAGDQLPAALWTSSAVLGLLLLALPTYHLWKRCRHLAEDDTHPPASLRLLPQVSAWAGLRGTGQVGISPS
# T2: mouse MAdCAM expressed on cells (mouse, UniProt Q61826 22-405)
# T2 construct: whole, on cells
# T2 sequence (looked up): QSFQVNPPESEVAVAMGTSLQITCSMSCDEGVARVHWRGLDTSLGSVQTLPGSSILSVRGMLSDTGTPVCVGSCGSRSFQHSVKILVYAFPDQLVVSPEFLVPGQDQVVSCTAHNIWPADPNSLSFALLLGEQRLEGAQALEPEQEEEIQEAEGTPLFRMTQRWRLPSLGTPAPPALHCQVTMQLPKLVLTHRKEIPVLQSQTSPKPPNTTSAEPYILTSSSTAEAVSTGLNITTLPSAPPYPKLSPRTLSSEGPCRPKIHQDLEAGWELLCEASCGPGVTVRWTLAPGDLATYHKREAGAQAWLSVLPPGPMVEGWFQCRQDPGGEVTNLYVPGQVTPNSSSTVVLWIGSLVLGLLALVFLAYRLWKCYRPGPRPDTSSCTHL
# B1: MAdCAM Antibody Table 2 Clone 36 (antibody, human IgG1, V domains shown)
# VH: EVQLLESGGGLVQPGGSLRLSCAASGFTFDDYALHWVRQAPGKGLEWVSAISGDGRSTTYADSVKGRFTISRDNSKNTLYLQMNSLRAEDTAVYYCARDGTVNGATGWFDPWGQGTLVTVSS
# VL: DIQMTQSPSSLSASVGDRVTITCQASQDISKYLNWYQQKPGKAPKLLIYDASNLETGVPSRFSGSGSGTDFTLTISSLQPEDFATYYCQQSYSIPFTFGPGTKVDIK
# B2: MAdCAM Antibody Table 2 Clone 19 (antibody, human IgG1, V domains shown)
# VH: EVQLLESGGGLVQPGGSLRLSCAASGFTFEDYAMHWVRQAPGKGLEWVSYLNSDGGSTSYADSVKGRFTISRDNSKNTLYLQMNSLRAEDTAVYYCAKDYCTNGVCAFDYWGQGTLVTVSS
# VL: DIQMTQSPSSLSASVGDRVTITCRASQSISTYLNWYQQKPGKAPKLLIYDASNLETGVPSRFSGSGSGTDFTLTISSLQPEDFATYYCQQSYTIPITFGQGTRLEIK
# B3: MAdCAM Antibody Table 2 Clone 34 (antibody, human IgG1, V domains shown)
# VH: QVQLVQSGAEVKKPGASVKVSCKASGYTFTGYYIHWVRQAPGQGLEWMGWMNPNSGNTGYAQKFQGRVTMTRDTSTSTVYMELSSLRSEDTAVYYCARDPGFLGYCSGGSCYDGWFDPWGQGTLVTVSS
# VL: B2 VL with T31S, N34H, D50A, N53S, E55Q, T56S, I94A, I96Y, R103K
# B4: MAdCAM Antibody Table 2 Clone 41 (antibody, human IgG1, V domains shown)
# VH: QVQLVQSGAEVKKPGASVKVSCKASGYTFTSYYMHWVRQAPGQGLEWMGIINPSGGSTSYAQKFQGRVTMTRDTSTSTVYMELSSLRSEDTAVYYCARDTGYSYGRYYYYGMDVWGQGTLVTVSS
# VL: B2 VL with S30G, T31R, Y32W, N34A, E55Q, T56S, T93S, R103K, L104V
# B5: MAdCAM Antibody Table 2 Clone 37 (antibody, human IgG1, V domains shown)
# VH: EVQLLESGGGLVQPGGSLRLSCAASGFTFSDYGMPWVRQAPGKGLEWVSAISGSGGSTYYADSVKGRFTISRDNSKNTLYLQMNSLRAEDTAVYYCARDGGWQPAAILDYWGQGTLVTVSS
# VL: B2 VL with S28G, T31N, Y32N, T93S, I94T, I96L, R103K, L104V
# B6: MAdCAM Antibody Table 2 Clone 30 (antibody, human IgG1, V domains shown)
# VH: EVQLLESGGGLVQPGGSLRLSCAASGFTFSSYAMHWVRQAPGKGLEWVSGISGSGGSAYYADSVKGRFTISRDNSKNTLYLQMNSLRAEDTAVYYCATSQAPVDYYYYGMDVWGQGTTVTVSS
# VL: B2 VL with T31S, Y32W, N34A, D50A, E55Q, T56R, T93S, R103K, L104V
# B7: MAdCAM Antibody Table 2 Clone 59 (antibody, human IgG1, V domains shown)
# VH: B5 VH with T28S, P35H
# VL: B2 VL with S28G, T31N, Y32N, T93S, I94T, I96L, Q100G, R103K, L104V
# B8: MAdCAM Antibody Table 2 Clone 44 (antibody, human IgG1, V domains shown)
# VH: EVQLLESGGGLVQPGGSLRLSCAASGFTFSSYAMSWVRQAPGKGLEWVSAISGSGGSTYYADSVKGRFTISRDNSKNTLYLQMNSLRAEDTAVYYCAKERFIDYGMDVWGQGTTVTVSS
# VL: DIQMTQSPSSLSASVGDRVTITCQASQDISNYLNWYQQKPGKAPKLLIYAASSLQSGVPSRFSGSGSGTDFTLTISSLQPEDFATYYCQQTYSGWTFGPGTKVDIK
# B9: MAdCAM Antibody Table 2 Clone 26 (antibody, V domains shown)
# VH: EVQLLESGGGLVQPGGSLRLSCAASGFTFSSYAMSWVRQAPGKGLEWVSYISSSSTYTNYADSVKGRFTISRDNSKNTLYLQMNSLRAEDTAVYYCARANSSSWYDWYFDLWGQGTLVTVSS
# VL: not shown
# B10: MAdCAM Antibody Table 2 Clone 21 (antibody, human IgG1, V domains shown)
# VH: EVQLVESGGGLVKPGGSLRLSCAASGFTFSSYWMSWVRQAPGKGLEWVSYISGDSGYTNYAAPVKGRFTISRDDSKNTLYLQMNSLKTEDTAVYYCARANSSGWYDWYFDLWGRGTLVTVSS
# VL: not shown
# B11: MAdCAM Antibody Table 2 Clone 54 (antibody, human IgG1, V domains shown)
# VH: QVQLVQSGAEVKKPGSSVKVSCKASGGTLSRYGVSWVRQAPGQGLEWMGGIIPIFGTTNYAQKFQGRVTITADESTSTAYMELSSLRSEDTAVYYCARDRVYYDSSGYPTWYFDLWGRGTLVTVSS
# VL: EIVMTQSPATLSVSPGERATLSCRASQSVSSSYLAWYQQKPGQAPRLLIYGASTRATGIPARFSGSGSGTEFTLTISSLQSEDFAVYYCQQYGSSPITFGQGTKVEIK
# B12: MAdCAM Antibody Table 2 Clone 45 (antibody, human IgG1, V domains shown)
# VH: EVQLVESGGGLVKPGGSLRLSCAASGFTFGDYAMSWVRQAPGKGLEWVSYISGDIGYTNYAAPVKGRFTISRDDSKNTLYLQMNSLKTEDTAVYYCARDVAATGNWYFDLWGRGTLVTVSS
# VL: not shown
# B13: MAdCAM Antibody Table 2 Clone 25 (antibody, human IgG1, V domains shown)
# VH: EVQLLESGGGLVQPGGSLRLSCAASGFTFSNAWMSWVRQAPGKGLEWVSTIVGNGGATYYADSVKGRFTISRDNSKNTLYLQMNSLRAEDTAVYYCARDNPLRWQGMDVWGQGTLVTVSS
# VL: DIQMTQSPSSLSASVGDRVTITCRASQDISNYLNWYQQKPGKAPKLLIYAASSLQSGVPSRFSGSGSGTDFTLTISSLQPEDFATYYCQQSYSIPPTFGPGTKVDIK
# B14: MAdCAM Antibody Table 2 Clone 43 (antibody, human IgG1, V domains shown)
# VH: QVQLVQSGAEVKKPGASVKVSCKASGYTFTSYGISWVRQAPGQGLEWMGWMHPKSGDTGLTQKFQGRVTMTRDTSTSTVYMELSSLRSEDTAVYYCARDTPYYYYGMDVWGQGTTVTVSS
# VL: B13 VL with D28S, N31S, Y32W, N34A, I94V, P96I, P100Q, D105E
# B15: MAdCAM Antibody Table 2 Clone 39 (antibody, human IgG1, V domains shown)
# VH: QVQLVQSGAEVKKPGASVKVSCKASGYTFTSYYMHWVRQAPGQGLEWMAWMNPNSGNTGYAQKFQGRVTMTRDTSTSTVYMELSSLRSEDTAVYYCARDYDFWSGSLGYWGQGTLVTVSS
# VL: B13 VL with D28G, N34A, I94T, P96W, P100Q, D105E
# B16: MAdCAM Antibody Table 2 Clone 56 (antibody, human IgG1, V domains shown)
# VH: EVQLVESGGGLVKPGGSLRLSCAASGFTFSSYWMSWVRQAPGKGLEWVSAIGTGGGTYYAAPVKGRFTISRDDSKNTLYLQMNSLKTEDTAVYYCAREWLVPYYGMDVWGQGTTVTVSS
# VL: B13 VL with D28S, N31R, Y32W, N34A, A50G, S53N, I94T, P96W, P100Q, D105E
# B17: MAdCAM Antibody Table 2 Clone 42 (antibody, human IgG1, V domains shown)
# VH: QVQLVQSGAEVKKPGASVKVSCKASGYTLTDYYMHWVRQAPGQGLEWMGIINPSGGSTSYAQKFQGRVTMTRDTSTSTVYMELSSLRSEDTAVYYCAREEYSSSSGYFDYWGQGTLVTVSS
# VL: B13 VL with D28G, N31S, Y32W, N34A, I94T, P96L, P100Q, D105E
# B18: MAdCAM Antibody Table 2 Clone 53 (antibody, human IgG1, V domains shown)
# VH: QVQLVQSGAEVKKPGASVKVSCKASGYTFTSYYMHWVRQAPGQGLEWMGWMNPNSGNTGYAQKFQGRVTMTRDTSTSTVYMELSSLRSEDTAVYYCAREGLGYCTNGVCWNYYGMDVWGQGTLVTVSS
# VL: B13 VL with D28G, N31S, Y32W, N34A, A50G, I94T, P96Y, P100Q, D105E
# B19: MAdCAM Antibody Table 2 Clone 40 (antibody, human IgG1, V domains shown)
# VH: QVQLVQSGAEVKKPGASVKVSCKASGYTLTTWYMYWVRQAPGQGLEWMGWINPNRGATNYAQKFQGRVTMTRDTSTSTVYMELSSLRSEDTAVYYCAKGDLWGAMDVWGQGTLVTVSS
# VL: B13 VL with Q27D, D28N, S30G, N31S, Y32W, N34A, S91G, I94T, P100Q, D105E
# B20: MAdCAM Antibody Table 2 Clone 55 (antibody, human IgG1, V domains shown)
# VH: EVQLLESGGGLVQPGGSLRLSCAASGFTFDDFAMHWVRQAPGKGLEWVSGISGNGDSRYYADSVKGRFTISRDNSKNTLYLQMNSLRAEDTAVYYCARDASYGGNYGMDVWGQGTTVTVSS
# VL: B13 VL with R24Q, S30R, A50K, S53T, Q55E, S91A, Y92N, I94F, P96L
# B21: MAdCAM Antibody Table 2 Clone 38 (antibody, human IgG1, V domains shown)
# VH: QVQLVQSGAEVKKPGASVKVSCKASGYTFTDYFLHWVRQAPGQGLEWMGWMNPTSGNTGYAQKFQGRVTMTRDTSTSTVYMELSSLRSEDTAVYYCAREGEGSGFDYWGQGTLVTVSS
# VL: DIQMTQSPSSLSASVGDRVTITCRASQGINSWLAWYQQKPGKAPKLLIYDASNLETGVPSRFSGSGSGTDFTLTISSLQPEDFATYYCQQSYSTPLTFGGGTKVEIK
# B22: MAdCAM Antibody Table 2 Clone 52 (antibody, human IgG1, V domains shown)
# VH: EVQLLESGGGLVQPGGSLRLSCAASGFTFDDYGMSWVRQAPGKGLEWVSYISSSSSYIYYADSVKGRFTISRDNSKNTLYLQMNSLRAEDTAVYYCAREIAAAGFYGMDVWGQGTTVTVSS
# VL: not shown
# Assays:
# [1] = molecular target: T1, human MAdCAM expressed on cells; test: cell binding
# [2] = molecular target: T2, mouse MAdCAM expressed on cells; test: cell binding
binder,measurement,setting,value
B1,binding result,[1],binds
same,binding result,[2],binds
B2,binding result,[1],binds
same,binding result,[2],no binding
B3,binding result,[1],binds
same,binding result,[2],no binding
B4,binding result,[1],binds
same,binding result,[2],no binding
B5,binding result,[1],binds
same,binding result,[2],no binding
B6,binding result,[1],binds
same,binding result,[2],binds
B7,binding result,[1],binds
same,binding result,[2],no binding
B8,binding result,[1],binds
same,binding result,[2],no binding
B9,binding result,[1],binds
same,binding result,[2],no binding
B10,binding result,[1],binds
same,binding result,[2],no binding
B11,binding result,[1],binds
same,binding result,[2],no binding
B12,binding result,[1],binds
same,binding result,[2],no binding
B13,binding result,[1],binds
same,binding result,[2],no binding
B14,binding result,[1],binds
same,binding result,[2],no binding
B15,binding result,[1],binds
same,binding result,[2],no binding
B16,binding result,[1],binds
same,binding result,[2],no binding
B17,binding result,[1],binds
same,binding result,[2],no binding
B18,binding result,[1],binds
same,binding result,[2],no binding
B19,binding result,[1],binds
same,binding result,[2],no binding
B20,binding result,[1],binds
same,binding result,[2],no binding
B21,binding result,[1],binds
same,binding result,[2],no binding
B22,binding result,[1],binds
same,binding result,[2],no binding
